In one test the target is T1, 生物素化的CD318蛋白 (human, UniProt Q9H5V8 30-667, biotin on the avi-tag).
T1 construct: Used 1:200 to stain CAR-T cells; also called 生物素-标记的CD318抗原; biotinylated recombinant human CD318-avi-his
T1 sequence: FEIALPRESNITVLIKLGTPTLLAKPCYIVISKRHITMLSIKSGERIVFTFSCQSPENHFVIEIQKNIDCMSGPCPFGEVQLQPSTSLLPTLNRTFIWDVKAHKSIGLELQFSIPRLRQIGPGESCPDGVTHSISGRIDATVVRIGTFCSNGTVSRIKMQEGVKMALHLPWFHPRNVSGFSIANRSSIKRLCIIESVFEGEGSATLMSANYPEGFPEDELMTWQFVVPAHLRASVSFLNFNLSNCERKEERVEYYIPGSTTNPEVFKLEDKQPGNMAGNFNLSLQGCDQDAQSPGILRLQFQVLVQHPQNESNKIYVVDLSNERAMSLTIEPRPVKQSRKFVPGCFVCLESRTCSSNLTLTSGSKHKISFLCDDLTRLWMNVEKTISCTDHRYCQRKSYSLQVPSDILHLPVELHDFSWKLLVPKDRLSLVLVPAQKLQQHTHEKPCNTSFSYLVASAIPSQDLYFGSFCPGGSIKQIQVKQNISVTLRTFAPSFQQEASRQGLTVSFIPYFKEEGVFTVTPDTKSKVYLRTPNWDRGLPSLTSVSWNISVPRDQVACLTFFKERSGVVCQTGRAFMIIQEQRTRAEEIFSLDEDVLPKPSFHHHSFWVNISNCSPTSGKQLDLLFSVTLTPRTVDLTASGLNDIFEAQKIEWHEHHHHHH
The experiment in a line: flow cytometry, CAR-T cells stained with biotinylated CD318 antigen and PE-streptavidin.

The target in a further test is T2, 重组人CD318-avi-his抗原蛋白 (human, UniProt Q9H5V8 30-667).
T2 construct: Coated on ELISA plates at 100 ng per well; also called 重组人CD318蛋白; CDCP1
T2 sequence: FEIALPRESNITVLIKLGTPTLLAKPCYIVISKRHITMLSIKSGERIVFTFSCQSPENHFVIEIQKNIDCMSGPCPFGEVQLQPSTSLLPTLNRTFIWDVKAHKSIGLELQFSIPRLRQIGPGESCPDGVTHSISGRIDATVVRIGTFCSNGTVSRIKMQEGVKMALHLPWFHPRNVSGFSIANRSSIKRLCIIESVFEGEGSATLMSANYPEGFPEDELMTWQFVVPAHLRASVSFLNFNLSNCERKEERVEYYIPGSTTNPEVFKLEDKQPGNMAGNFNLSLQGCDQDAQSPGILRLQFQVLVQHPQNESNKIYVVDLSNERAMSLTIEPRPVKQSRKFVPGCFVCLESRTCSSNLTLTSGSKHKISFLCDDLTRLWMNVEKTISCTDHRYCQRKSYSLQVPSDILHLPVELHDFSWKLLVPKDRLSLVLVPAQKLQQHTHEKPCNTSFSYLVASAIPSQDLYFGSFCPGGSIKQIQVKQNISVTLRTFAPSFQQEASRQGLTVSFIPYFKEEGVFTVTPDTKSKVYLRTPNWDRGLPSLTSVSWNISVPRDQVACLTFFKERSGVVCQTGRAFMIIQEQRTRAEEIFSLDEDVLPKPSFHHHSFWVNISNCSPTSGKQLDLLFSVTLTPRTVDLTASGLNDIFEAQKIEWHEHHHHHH
The experiment in a line: ELISA, coated recombinant human CD318, periplasmic extract, anti-HA HRP.

We go through eight molecules from patent CN117264055A (SHANGHAI HRAIN BIOTECHNOLOGY CO LTD, dated 2023).

B1: 4A10-BBz (other)
chain: EVQVVESGGGLVQAGGSLRLSCVASGSNDSMTAMGWYRQAPGKQREMVAVSTSTGTAIYGDSMKGRFTIARDNAKNTVYLQMNSLNFEDTAVYYCRNFIRGRDYWGQGTQVTVSSTTTPAPRPPTPAPTIASQPLSLRPEACRPAAGGAVHTRGLDFACDIYIWAPLAGTCGVLLLSLVITLYCRFSVVKRGRKKLLYIFKQPFMRPVQTTQEEDGCSCRFPEEEEGGCELRVKFSRSADAPAYQQGQNQLYNELNLGRREEYDVLDKRRGRDPEMGGKPRRKNPQEGLYNELQKDKMAEAYSEIGMKGERRRGKGHDGLYQGLSTATKDTYDALHMQALPPR
notes: Chimeric antigen receptor: CD8 signal peptide, VHH, CD8a hinge, CD8a transmembrane, 4-1BB, CD3zeta; also called 4A10 CD318 CAR
B1: the binding result with 生物素化的CD318蛋白 was “binds”.

B2: 4A8 (VHH)
VHH: EVQLVESGGGLVQPGGSLRLSCAASGFTSDYYAIGWFRQAPGKEREGVSCINNSDGSTYYADSVKGRFTISRDNAKNTVYLQMNSLKPEDTAVYYCAADDDVVAGFSCASYRYLELWGQGTLVTVSS
notes: Tested as a periplasmic extract from TG1 (pcomb3X phagemid) and detected with anti-HA HRP; also called CD318 VHH 4A8
As for B2, the binding result with 重组人CD318-avi-his抗原蛋白 is on record as “binds”.

B3: 4A8-BBz (other)
chain: EVQLVESGGGLVQPGGSLRLSCAASGFTSDYYAIGWFRQAPGKEREGVSCINNSDGSTYYADSVKGRFTISRDNAKNTVYLQMNSLKPEDTAVYYCAADDDVVAGFSCASYRYLELWGQGTLVTVSSTTTPAPRPPTPAPTIASQPLSLRPEACRPAAGGAVHTRGLDFACDIYIWAPLAGTCGVLLLSLVITLYCRFSVVKRGRKKLLYIFKQPFMRPVQTTQEEDGCSCRFPEEEEGGCELRVKFSRSADAPAYQQGQNQLYNELNLGRREEYDVLDKRRGRDPEMGGKPRRKNPQEGLYNELQKDKMAEAYSEIGMKGERRRGKGHDGLYQGLSTATKDTYDALHMQALPPR
notes: Chimeric antigen receptor: CD8 signal peptide, VHH, CD8a hinge, CD8a transmembrane, 4-1BB, CD3zeta; also called 4A8 CD318 CAR
Consider B3, for which the binding result with 生物素化的CD318蛋白 is given as “binds”.

B4: 4A10 (VHH)
VHH: EVQVVESGGGLVQAGGSLRLSCVASGSNDSMTAMGWYRQAPGKQREMVAVSTSTGTAIYGDSMKGRFTIARDNAKNTVYLQMNSLNFEDTAVYYCRNFIRGRDYWGQGTQVTVSS
notes: Tested as a periplasmic extract from TG1 (pcomb3X phagemid) and detected with anti-HA HRP; also called CD318 VHH 4A10
With B4, the binding result in the test with 重组人CD318-avi-his抗原蛋白 is reported as “binds”.

B5: 4B2 (VHH)
VHH: EVQVVESGGGLVQAGGSLRLSCVASGSSDSMNAMGWYRQAPGKQRETVAVSTSVGTAIYGDSVKGRFTISRDNAKNTVYLQMNSLNFEDTAVYYCRIFSRGRDYWGQGTQVTVSS
notes: Tested as a periplasmic extract from TG1 (pcomb3X phagemid) and detected with anti-HA HRP; also called CD318 VHH 4B2
Turning to B5, the binding result with 重组人CD318-avi-his抗原蛋白 is listed as “binds”.

B6: 4G2 (VHH)
VHH: QVQLVESGGGLVQAGGSLRLSCAAFGNKYDFNTMGWYRQGPGKQRELVATIAAGGRTNYADSAKGRFTISRDNAKNTVYLQMNSLKPEDTAVYYCSAERVKNHYADYALDDYWGQGIQVTVSS
notes: Tested as a periplasmic extract from TG1 (pcomb3X phagemid) and detected with anti-HA HRP; also called CD318 VHH 4G2
For the molecule B6, the binding result with 重组人CD318-avi-his抗原蛋白 is given as “binds”.

B7: 4A4 (VHH)
VHH: QVQLVESGGGLVQAGGSLRLSCAASGSIFSGSAMGWYRQAPGKQRELVVVESSGGSTNYADSVKGRFTISRDNAKNTVYLQMNSLKPEDTAVYYCRGFYYGMGYWGKGTQVTVSS
notes: Tested as a periplasmic extract from TG1 (pcomb3X phagemid) and detected with anti-HA HRP; also called CD318 VHH 4A4
For B7, in the test with 重组人CD318-avi-his抗原蛋白, the binding result is given as “binds”.

B8: 4B7 (VHH)
VHH: EVQLVETGGGLVQPGGSLRLSCAASGFTLDYYAIGWFRQAPGKEREGVSCITSSDDNTYYADSVKGRFTISRDNAKNTVYLQMNSLKPEDTAVYYCATDALSIRRSSCQLGPTAYFGMDYWGKGTLVTVSS
notes: Tested as a periplasmic extract from TG1 (pcomb3X phagemid) and detected with anti-HA HRP; also called CD318 VHH 4B7
As to B8, the binding result in the test with 重组人CD318-avi-his抗原蛋白 is given as “binds”.
